Results: IntAct's records for PubMed 22660580

B1: Interleukin-1 receptor-like 1 (Mus musculus), P14719 (parent)
chain: MIDRQRMGLWALAILTLPMYLTVTEGSKSSWGLENEALIVRCPQRGRSTYPVEWYYSDTNESIPTQKRNRIFVSRDRLKFLPARVEDSGIYACVIRSPNLNKTGYLNVTIHKKPPSCNIPDYLMYSTVRGSDKNFKITCPTIDLYNWTAPVQWFKNCKALQEPRFRAHRSYLFIDNVTHDDEGDYTCQFTHAENGTNYIVTATRSFTVEEKGFSMFPVITNPPYNHTMEVEIGKPASIACSACFGKGSHFLADVLWQINKTVVGNFGEARIQEEEGRNESSSNDMDCLTSVLRITGVTEKDLSLEYDCLALNLHGMIRHTIRLRRKQPIDHRSIYYIVAGCSLLLMFINVLVIVLKVFWIEVALFWRDIVTPYKTRNDGKLYDAYIIYPRVFRGSAAGTHSVEYFVHHTLPDVLENKCGYKLCIYGRDLLPGQDAATVVESSIQNSRRQVFVLAPHMMHSKEFAYEQEIALHSALIQNNSKVILIEMEPLGEASRLQVGDLQDSLQHLVKIQGTIKWREDHVADKQSLSSKFWKHVRYQMPVPERASKTASVAAPLSGKACLDLKHF
partner: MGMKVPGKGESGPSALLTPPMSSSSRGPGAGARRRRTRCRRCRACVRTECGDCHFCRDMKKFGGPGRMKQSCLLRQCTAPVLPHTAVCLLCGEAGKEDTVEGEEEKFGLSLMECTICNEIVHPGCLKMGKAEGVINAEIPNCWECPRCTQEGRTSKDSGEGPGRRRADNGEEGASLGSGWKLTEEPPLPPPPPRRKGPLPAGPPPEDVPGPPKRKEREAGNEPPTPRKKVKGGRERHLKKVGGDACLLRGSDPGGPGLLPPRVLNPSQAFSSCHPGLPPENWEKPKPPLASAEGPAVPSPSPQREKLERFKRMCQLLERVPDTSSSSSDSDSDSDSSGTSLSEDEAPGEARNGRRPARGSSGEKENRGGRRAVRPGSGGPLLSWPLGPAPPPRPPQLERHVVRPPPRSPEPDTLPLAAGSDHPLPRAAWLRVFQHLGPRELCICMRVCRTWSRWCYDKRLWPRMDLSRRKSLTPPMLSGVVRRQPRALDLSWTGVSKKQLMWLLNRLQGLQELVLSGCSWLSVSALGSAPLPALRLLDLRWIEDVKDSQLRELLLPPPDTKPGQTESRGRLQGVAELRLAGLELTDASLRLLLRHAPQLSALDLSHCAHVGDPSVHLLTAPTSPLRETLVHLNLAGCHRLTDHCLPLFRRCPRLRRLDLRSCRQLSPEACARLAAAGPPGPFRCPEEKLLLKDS

Variants of: B1
Settings: with fxl19_human FBXL19, Q6PCT2
MIDRQRMGLWALAILTLPMYLTVTEGSKSSWGLENEALIVRCPQRGRSTYPVEWYYSDTNESIPTQKRNRIFVSRDRLKFLPARVEDSGIYACVIRSPNLNKTGYLNVTIHKKPPSCNIPDYLMYSTVRGSDKNFKITCPTIDLYNWTAPVQWFKNCKALQEPRFRAHRSYLFIDNVTHDDEGDYTCQFTHAENGTNYIVTATRSFTVEEKGFSMFPVITNPPYNHTMEVEIGKPASIACSACFGKGSHFLADVLWQINKTVVGNFGEARIQEEEGRNESSSNDMDCLTSVLRITGVTEKDLSLEYDCLALNLHGMIRHTIRLRRKQPIDHRSIYYIVAGCSLLLMFINVLVIVLKVFWIEVALFWRDIVTPYKTRNDGKLYDAYIIYPRVFRGSAAGTHSVEYFVHHTLPDVLENKCGYKLCIYGRDLLPGQDAATVVESAIQNSRRQVFVLAPHMMHSKEFAYEQEIALHSALIQNNSKVILIEMEPLGEASRLQVGDLQDSLQHLVKIQGTIKWREDHVADKQSLSSKFWKHVRYQMPVPERASKTASVAAPLSGKACLDLKHF [S442A] was tested, and the “effect of a mutation on the interaction” value was “decreasing interaction”.
